For one molecule, FRET efficiency results are on record in PMC3364743.

In this assay the target is T1, CAV1–mCherry (caveolin-1 fused to mCherry), Q03135.
T1 chain: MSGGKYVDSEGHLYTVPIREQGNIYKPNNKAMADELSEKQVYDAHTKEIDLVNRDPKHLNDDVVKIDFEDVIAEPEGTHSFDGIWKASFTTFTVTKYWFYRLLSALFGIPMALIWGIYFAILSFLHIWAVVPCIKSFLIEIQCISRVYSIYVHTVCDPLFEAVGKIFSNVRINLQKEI
Briefly: FRET or BRET. To be noted: remark: other sources report otherwise. For orientation: BRET reads energy transfer from a luciferase to a nearby fluorophore.

B1: CAV1–mCherry (caveolin-1 fused to mCherry), Q03135 1-178 (natural protein)
chain: MSGGKYVDSEGHLYTVPIREQGNIYKPNNKAMADELSEKQVYDAHTKEIDLVNRDPKHLNDDVVKIDFEDVIAEPEGTHSFDGIWKASFTTFTVTKYWFYRLLSALFGIPMALIWGIYFAILSFLHIWAVVPCIKSFLIEIQCISRVYSIYVHTVCDPLFEAVGKIFSNVRINLQKEI
B1: the FRET efficiency worked out at 48%.
